Laboratory results as given in patent US20100298415.

Key:
Assay in all cases: competition
Settings in all cases: PS three linkages at 5' and 3' ends of both strands; 5' C6 amino linker conjugated to Co(III) Schiff base; not inhibited at 1 uM; EMSA
p105 (NF-kB) = target: T1, p105 (NF-kB) (UniProt P19838)
T1 sequence: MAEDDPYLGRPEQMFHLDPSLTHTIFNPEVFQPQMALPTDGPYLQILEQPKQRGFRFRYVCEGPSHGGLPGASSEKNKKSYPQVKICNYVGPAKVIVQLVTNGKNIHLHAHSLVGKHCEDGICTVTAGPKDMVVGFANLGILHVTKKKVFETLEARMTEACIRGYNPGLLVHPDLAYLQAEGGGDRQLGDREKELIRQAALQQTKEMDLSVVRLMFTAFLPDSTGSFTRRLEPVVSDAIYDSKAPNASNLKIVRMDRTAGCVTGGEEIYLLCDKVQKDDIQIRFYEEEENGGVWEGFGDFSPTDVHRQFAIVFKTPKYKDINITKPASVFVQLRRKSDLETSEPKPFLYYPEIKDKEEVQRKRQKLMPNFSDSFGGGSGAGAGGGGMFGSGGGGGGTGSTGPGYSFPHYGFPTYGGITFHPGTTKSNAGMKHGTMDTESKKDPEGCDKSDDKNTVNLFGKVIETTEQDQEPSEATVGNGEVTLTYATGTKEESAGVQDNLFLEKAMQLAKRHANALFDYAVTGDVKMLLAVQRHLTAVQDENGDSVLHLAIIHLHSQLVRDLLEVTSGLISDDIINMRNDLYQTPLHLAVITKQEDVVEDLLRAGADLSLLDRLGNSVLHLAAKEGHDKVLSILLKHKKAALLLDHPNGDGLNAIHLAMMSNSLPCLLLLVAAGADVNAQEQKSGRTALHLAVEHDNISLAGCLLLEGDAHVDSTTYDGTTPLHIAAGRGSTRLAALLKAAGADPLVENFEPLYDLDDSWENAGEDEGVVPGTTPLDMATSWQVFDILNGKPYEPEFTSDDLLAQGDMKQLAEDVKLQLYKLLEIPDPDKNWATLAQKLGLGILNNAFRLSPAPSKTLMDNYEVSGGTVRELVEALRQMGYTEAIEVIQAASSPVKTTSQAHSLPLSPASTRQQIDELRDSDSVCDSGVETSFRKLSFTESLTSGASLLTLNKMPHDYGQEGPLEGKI

Lef-1 = Lef-1 (UniProt Q9UJU2)
Lef-1, sequence (Q9UJU2 whole entry): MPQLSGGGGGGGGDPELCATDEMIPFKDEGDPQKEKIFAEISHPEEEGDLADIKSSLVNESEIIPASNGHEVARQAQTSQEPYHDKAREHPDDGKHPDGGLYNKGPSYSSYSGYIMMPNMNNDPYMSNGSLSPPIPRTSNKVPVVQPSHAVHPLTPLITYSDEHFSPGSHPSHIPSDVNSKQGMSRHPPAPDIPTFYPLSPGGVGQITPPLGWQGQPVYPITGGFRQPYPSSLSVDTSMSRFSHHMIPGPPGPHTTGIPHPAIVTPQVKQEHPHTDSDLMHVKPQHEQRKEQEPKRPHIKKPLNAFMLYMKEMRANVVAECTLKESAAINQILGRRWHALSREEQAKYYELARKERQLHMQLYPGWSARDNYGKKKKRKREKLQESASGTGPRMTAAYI

MitF = target: T2, MitF (UniProt O75030)
T2 sequence: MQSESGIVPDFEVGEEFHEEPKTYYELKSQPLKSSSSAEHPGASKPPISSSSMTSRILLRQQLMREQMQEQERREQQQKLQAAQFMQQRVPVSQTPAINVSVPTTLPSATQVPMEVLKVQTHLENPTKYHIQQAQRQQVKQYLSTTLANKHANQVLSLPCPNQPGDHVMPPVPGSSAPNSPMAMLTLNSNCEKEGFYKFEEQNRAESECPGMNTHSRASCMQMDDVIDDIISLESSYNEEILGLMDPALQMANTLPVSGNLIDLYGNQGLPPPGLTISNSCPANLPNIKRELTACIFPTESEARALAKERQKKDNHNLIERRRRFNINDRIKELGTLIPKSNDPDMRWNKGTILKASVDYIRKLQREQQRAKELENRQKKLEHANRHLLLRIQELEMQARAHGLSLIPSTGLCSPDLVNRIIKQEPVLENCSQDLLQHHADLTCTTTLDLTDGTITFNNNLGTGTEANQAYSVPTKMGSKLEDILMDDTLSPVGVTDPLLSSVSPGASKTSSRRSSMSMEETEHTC

Measured: activity

TACGACAGGTGTTGGGA (double strand) [Co(III)-Ebox]
> 1 µM: all assays above
